Assay: yeast display, Sf9 membrane polyspecificity reagent, FACS + sequencing; frameworks hold sequencing errors
Method in brief: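 In a synthetic yeast display library (Saccharomyces cerevisiae BJ5465), nanobody expression was induced with galactose for 36–48 hours. FACS gates were set low and high (top ~1%) using anti-HA fluorescence for expression and streptavidin fluorescence for binding of the Sf9 membrane reagent. Each polyreactivity label is drawn from the gate of origin.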

Sequence | polyreactivity (PSR sort gate)
QVKLVESGGGLVQAGGSLRLSCAAYGLIMGRYAMGWYRQEPGKERELVAAISGSGGSTYYADSVKGRFTISRDNAKNTVYLQMNSLKPEDTAVYYCAADRLRYRDMYYWGQGTQVTVSS | low polyreactivity
QVKLVESGGGLVQAGGSLRLSCGASGSTFGAYAMGWYRQAPGKERELVAVINSDGSTNYADSVKGRFTISRDNAKNTVYLQMNSMKPEDTAVYYCAKERTSRGGVPRMNYWGQGTQVTVSS | low polyreactivity
QVKLVESGGGLVQAGGSLRLSCSASGFTFRFYAMGWYIQAPGKERELVASITRSGGSTYYADSVKGRFTISRDNAKNTVYLQMNSLKPEDTAVYYCAAYRCYVSYKEMYYLGQGTQVTVSS | high polyreactivity
QVKLVESGGGLVQAGGSLRLSFAAYGSIFAWYGMGWYRQAPGKERELVAAISTAGSTNYADSVKGRFTISRDNAKNTVYLQMNSLKPEDTAVYYCAKKSSWYYQERFDYWGQGTQVTASS | low polyreactivity
QVKLVESGGGLVQAGGSLRLSFDASGSTFYFYAMGLYRQDPGKETEFFAAITQSGGSTNYADSVKGRFTISRDKAKNTVYLQMNSLKPEDTAVYYCSAREWRSFDYWGQGTQVTVSS | low polyreactivity
QVKLVESGGGLVQAGGSLRLSSAASGSTFEYNAMGWYRQAPGKERELVASSTNYADSVKGRFTISRDNAKNTVYLQMTSRKPEDTAVYYCAREQGVNRNHDYWGQGTQVTVSS | low polyreactivity
QVKLVESGGGLVQAGGSLSLSCDASGFISVQNALGCYRQAPGKERELVASITSDGSTYYADSVKGRFTISRDNAKNTVYLQMTSLKPEDTAVYDCAKVNNSYSGFTTTLEYWGQGTQVTVSS | low polyreactivity
QVKLVESGGGLVQEGGSLRLSCAASGRICGNYSMGWYRQAPGKERELVAAIDLSGDSTYYADSVKGRFTISRDNAKNTVYLQMNSLKPEDTAVYYCAATDWFSEYYWGQGTQVTVSS | low polyreactivity
QVKLVESGRGLVQAGGSLRLSCAASGITFISNAMAVYRQAPGKERELVAAISYRGGSTYYADSVKGRFTISRDNAKNTVYLQMNSLKPEDTAVYDCAARFHYPGGPRYYYWGQGTQVTVSS | high polyreactivity
QVKLVESGVGLVQAGGSLRLSCGASGFIFVRYAIVWSRQAPGKERDLVAAISGSGGRTYYAYSVKGRFTISRDNAKNTVYLKMNSLKPEDTSVYYCNVKSYTYGYLPYDYWGQGTQVTVSS | high polyreactivity
QVKLVESVGGLVQAGGRLRLSCAASGSILYFNAMGWYRQAPGKERELVAAISKSGGRTYYADSVKGRFTISRDNAKNTVYLQMNCLKPEDTAVYYCAKDNYWGQGTQVTVSS | high polyreactivity
QVKLVESWRGLVPAGVSLRLSCAASVNILDYYAMGWYRQAPGNERELVASITSGGGTYYADSVKGRFTISRDNAKNTVYLQMNSLKPEDTAVYYCNAGPKRTYSPPWRVRYYDWGQGTQVTVSS | high polyreactivity
QVKLVVSGGGLVQAGGSLRLTCAASGRTFRRNAMGWYRQAPGKERELVAAISTSGGRTYYADSVKGRFTISRDNAKNTVYLQMNSLKAEDTAVYYCAADIPQTEGYWGQGTQVTVSS | low polyreactivity
QVKQQESGGGLVKAGGSLRLSCAASGNISNHNDMGRYRQAPGKEREFVAGITAGGITNYADRVKGRCTISRDNAKNTVYLQMNCLKPEETAVYYCAAYADYAKSYGYWGQGTQATVSS | low polyreactivity
QVKRVESGGGLVQAGGSLRFSCADSGFTFGTYAMGWYRQAPGKEREFVAAISSNGGNTYYADSVKGRFTISRDNAKNTVYLEIHSLKPEDTAVSYCADRYPSGTRKWYCYWGQGTQVTVSS | high polyreactivity
QVLLEDSGGGLVQAGARLRLICAASGRIHVNAMGWYRQAPGKERELVASINIGDGTHYADSVKGRFTISRANAKNTVYLQLNSLISEVTAVYYCAADSRSSNACYDYWGQGTQVSVSS | low polyreactivity
QVLLQESGGGLVQAGGSLRLCCAASGYISGDQFMGWYRQAPGKEREFVAGIGNGTNTNYADSVKGRFTTSRDNAKNTVYLQMNSLKPEDTAVYYCAADPSDGSTLAYWGQGTQVTVSS | high polyreactivity
QVLLQESGGGLVQAGGSLRLGCAASGTISPAYYMGRYHQAPGKEREFVAAITYGTNTYYADSEKGRFTISRDNAKNTVYLQMNSLKPEDTAVYYCSATAGYNGAHDYWGQVTQVTVSS | low polyreactivity
QVLLQESGGGLVQAGGSLRLGCAASGTISPAYYMGRYHQAPGKEREFVAAITYGTNTYYADSVKGRFTISRDNAKNSVYLQMNSLKPEDTAVYYCSATAGYNGAHDYWGQGTQVTVSS | low polyreactivity
QVLLQESGGGLVQAGGSLRLSCAASGSIFLIYTMGWYRHAPVKEREFVAGITLGTTTYNADSVKGRFTISRDNVKNTVYLKMNILKPEDTEVYYCAVAVGHYTEFWYWGQGTQVTMSS | high polyreactivity
QVLLQESGGGLVQAGGSLRMSCAASGNIFSAGGMGWYRQAPVNERELVAGIGTGTSTNYADSVKGRFTISRDNAKNTVYLQMNSLKPEDTAVYYCAAAYYSGLSHWYWGQGTQVTVSS | low polyreactivity
QVLLQESGGLVQAGCSLRMSCAASGSISTALSMGWYRQAPGKERELVATISDGASTNYADSVKGRFTISRVNAKNTVYLQMNSLKPEDSEVYYCAAQSQYRPDHRYWGQGTQVTVSS | high polyreactivity

Sequence | polyreactivity (PSR sort gate)
QVLLVESGGCLVQAGGSVRLSCAASGSTFAPYVMGWYTQAPGKERELVADISTSGSTYYADSVKGRFTISRDNAKNTVYLQMNSMKPEDTAVYYCAAEDQRWFWTYDCWGQGTQVTVSS | high polyreactivity
QVLLVESGGGIVQAGGSLRLSCAASGSIIEPNAMGWYRQEPGQEREFVAAISGSGGSTYYADSVKGRFTSSRDNAKNTVYLQRNSLKPEYSAVYYCNALYLRTTPQDYDYWGQGTQVTVSS | high polyreactivity
QVLLVESGGGLDHAGGSLPLSCAASGFTFGDNAMGWYRQAPGKERELVAAITSTGGSTNYADSVKGRFTISRDNAKYTVYLQMNSLKPDDTAVYYCAAEWLYRHDGGYPRPMDYWGQGTQVTVSS | low polyreactivity
QVLLVESGGGLLQAGGSLRLSCAASGFTFLGYVMGWYRQAPGKEREFVADITESGGRTYYADSVKGRFTISRDNAKNTVYLQMNSLKPEDTAVYYCSGEVIFEQLNRMDYWGQGTQVTVSS | low polyreactivity
QVLLVESGGGLVQAGGSIRLSCDASGLTFYQNSMGWYRQAPGKERELVAAISSTRITNYADSVKVRFTLSRDNAKTPVYLQMNSLIPEDTAVYYCNADYHPFFFEFIYWGQGTQGTVSS | high polyreactivity
QVLLVESGGGLVQAGGSLRLICAASGLIFFYYDMGWYRQAPGKERELVAAISQRGGSTYYADSLKGRFTISRDNEKNTVYLQMNSLKPEETAVYYCNVRSPASYRRYYWGQGTQVTVSS | high polyreactivity
QVLLVESGGGLVQAGGSLRLSCAASGGTFGAYDMGWYRQAPGKERELVATITSGGRTNYADSVTGRFTISRDNAKNTVYLQMNSLKPVDTAVYYCNARYYGYDAPYHTYEYYYWGQGTQVTVSS | low polyreactivity
QVLLVESGGGLVQAGGSLRLSCAASGRTFVYYTMGWDRQAPGKERELVAAINWRGTSTYYADSVKGRFTISRDNAKNTVYLQMNSLKPEDTAVYYCYAERNAGFDYWGQGTQVTVSS | high polyreactivity
QVLLVESGGGLVQAGGSLRLSCAASGSIFIANAKGWYRQAPGKERELGAAIDSGGSTNYADSVKGRFTISRDNAKYTVYLQMNSLKPEDTAVYYCAADGTLTAPGGDYWGQGTQVTVSS | high polyreactivity
QVLLVESGGGLVQAGGSLRLSCAASGSTFWRNAMGWYRQATGKERELVAVISGSGSRTFYADSVKGRFTISRDNAKNTVNLQMNSLKPEDTAVYYCAADARQYQGFDYWGQGTQVTVSS | high polyreactivity
QVLLVESGGGLVQAGGSLRLSCAPSGRTVDSYAMGWYRQAPGKETELVAAIDWGGGTTYYADSVKGRFRISRDNAKNSVYLQMNSLKPEDTAVYYCAAGDVWIAPYDSWGQGTQVTVSS | low polyreactivity
QVLLVESGGGLVQAGGSLRLSCAPSGSIFDYYTMGWYRQAPGKERELVAAISSDGSTNYADSVKGRFTISRDNAKNTVYLQMNTLKPEDTAVYYCADSTYRFYYYLKRGYWGQGTKVTVSS | low polyreactivity
QVLLVESGGGLVQAGGSLRLSSAASGSIFVCNAMGWYRQAPGKERELVAAIRGVDSTYYGDSVKGRFTISRDNGKNTFFLQMNSLKPEDTAFYYCATLGPGFPRYYDWGQGTQVTVSS | high polyreactivity
QVLLVESGGGLVQEGGSLRLSCAASGITFDTYAMGGYRQAPGKEREFVASIKWITGNTYYEDSVKGRFTISRDNAKNTVYLQMNSLKTEDTAVYYCAARTYYVRGLGGRPGMDYWGQGTQVTVSS | low polyreactivity
QVNLLDSGGGLVKAGGSLRLTCAASGSIYHPYTMGLYRQATGKETELVAAISWSGGNTNYADSVKGRFTISRDYAKNTVYLQMNSLKPEDTAVYYFAAAKRDFVEYDYWGEGTQVTVSS | low polyreactivity
QVNLVQSAGGLVQAGCSLRLSCPASGFILYKNAMGRYRQKPGKERELVAISSSGGSTYYADSVKGRFTISRENAKNTVYLLMNSLKPEDTAVYYCGAYIYGTYYYWGQGTQVTVSS | high polyreactivity
QVPLVESGGGIDQAGGSLRLSCAASGFIFCTYTMGWYIQAPGNEWELVAAISKSSGSTYYADSVKGRFTISRDNAKKTVYLQMNSLKPEDTAVYYCAAPTRSYGTPPYDYWGQGTQVTVSA | low polyreactivity
QVPLVESGGGLVQAGGSLRLSWAASGRTFVPYAMGWDSPAPGKDWELVAAISSGGDTNYADSVKGRVTISRDNAKNTVYLQMNSLKPEDTAVSYCAADVKRDRVWGGDYWGQGTQVTVSS | low polyreactivity
QVPLVESGGGLVQAGVSLRLSCAASGSIFYLYAMGWYRQAPGKERELVAAISRSGASTYYADSVKGRFTISRDNAKNTVYLQMNSQKPEDTAVYYCAAYKIWGRVRYDYWGQGTQVTVSS | low polyreactivity
QVPLVESVGGLVQAGGSLRLSCAASGRIFRANAMGWYRQAPGKEREFVAAINFSVSSTYAYSVKGRFTISRDNAKNTVYLQMNSLKPEDTAVYYCAATPTREGEYWGQGTQVTVSS | low polyreactivity
QVQFVESGGGVVQAGGSLRLSCAASGNIPYWYAMGWSRPAPAKERELVAAISSRGNTYYADSVKGRFTISRDNAKNNVYLQMNSLKQEDTAVYYCAAYAGSFYYWGQGTQVTVSS | high polyreactivity

— the nanobody polyreactivity screen of Harvey et al. (2022)
